In patent US20210221886A1:

Target: human CD47 antigen (human) (UniProt Q08722)
Experiment: flow cytometry on human red blood cells at the maximal binding concentration; reference Hu5F9

percent reduction of RBC binding with respect to Hu5F9: 80%
Substance: anti-CD47 IgG4 AO-176 (antibody)
